Reference: patent publication US20170226161A1 (GlaxoSmithKline, published 2017)
Values joined by “and” are separate entries in the source; they are usually repeats but may differ in a detail not shown here. Equal entries are not always repeated.

T1: factor H comprising only domains 6-7 (UniProt P08603 321-443)
T1 sequence: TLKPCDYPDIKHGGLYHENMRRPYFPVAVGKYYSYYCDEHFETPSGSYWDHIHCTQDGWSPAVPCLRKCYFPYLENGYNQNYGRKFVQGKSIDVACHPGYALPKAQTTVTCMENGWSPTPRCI

B1: v3 fHbp with S32V (SEQ ID NO: 17 numbering) (other)
chain: VAADIGTGLADALTAPLDHKDKGLKSLTLEDVIPQNGTLTLSAQGAEKTFKAGDKDNSLNTGKLKNDKISRFDFVQKIEVDGQTITLASGEFQIYKQNHSAVVALQIEKINNPDKTDSLINQRSFLVSGLGGEHTAFNQLPGGKAEYHGKAFSSDDPNGRLHYSIDFTKKQGYGRIEHLKTLEQNVELAAAELKADEKSHAVILGDTRYGSEEKGTYHLALFGDRAQEIAGSATVKIGEKVHEIGIAGKQ
B2: 231 S fusion polypeptide (v2-v3-v1 fHbp, stabilised) (other)
chain: MGPDSDRLQQRRVAADIGAGLADALTAPLDHKDKSLQSLTLDQVVRKNEKLKLAAQGAEKTYGNGDSLNTGKLKNDKVSRFDFIRQIEVDGQLITLESGEFQIYKQDHSAVVALQIEKINNPDKIDSLINQRSFRVSGLGGEHTAFNQLPDGKAEYHGKAFSSDDAGGKLTYTIDFAAKQGHGKIEHLKTPEQNVELAAAELKADEKSHAVILGDTRYGSEEKGTYHLALFGDRAQEIAGSATVKIGEKVHEIGIAGKQGSGGGGVAADIGTGLADALTAPLDHKDKGLKSLTLEDVIPQNGTLTLSAQGAEKTFKAGDKDNSLNTGKLKNDKISRFDFVQKIEVDGQTITLASGEFQIYKQNHSAVVALQIEKINNPDKTDSLINQRSFRVSGLGGEHTAFNQLPGGKAEYHGKAFSSDDPNGRLHYSIDFTKKQGYGRIEHLKTLEQNVELAAAELKADEKSHAVILGDTRYGSEEKGTYHLALFGDRAQEIAGSATVKIGEKVHEIGIAGKQGSGGGGVAADIGAGLADALTAPLDHKDKGLQSLTLDQSVSKNEKLKLAAQGAEKTYGNGDSLNTGKLKNDKVSRFDFIRQIEVDGQLITLESGEFQVYKQSHSALTAFQTEQIQDSEHSGKMVAKRQFRIGDIAGEHTSFDKLPEGGRATYRGTAFGSDDAGGKLTYTIDFAAKQGNGKIEHLKSPELNVDLAAADIKPDGKRHAVISGSVLYNQAEKGSYSLGIFGGKAQEVAGSAEVKTVNGIRHIGLAAKQ

How the values were obtained:
[1] = biological target: T2, human factor H (fH), immobilised (human, UniProt P08603 19-1231); assay: SPR (FIG. 6)
T2 construct: also called human fH
T2 sequence (P08603 19-1231): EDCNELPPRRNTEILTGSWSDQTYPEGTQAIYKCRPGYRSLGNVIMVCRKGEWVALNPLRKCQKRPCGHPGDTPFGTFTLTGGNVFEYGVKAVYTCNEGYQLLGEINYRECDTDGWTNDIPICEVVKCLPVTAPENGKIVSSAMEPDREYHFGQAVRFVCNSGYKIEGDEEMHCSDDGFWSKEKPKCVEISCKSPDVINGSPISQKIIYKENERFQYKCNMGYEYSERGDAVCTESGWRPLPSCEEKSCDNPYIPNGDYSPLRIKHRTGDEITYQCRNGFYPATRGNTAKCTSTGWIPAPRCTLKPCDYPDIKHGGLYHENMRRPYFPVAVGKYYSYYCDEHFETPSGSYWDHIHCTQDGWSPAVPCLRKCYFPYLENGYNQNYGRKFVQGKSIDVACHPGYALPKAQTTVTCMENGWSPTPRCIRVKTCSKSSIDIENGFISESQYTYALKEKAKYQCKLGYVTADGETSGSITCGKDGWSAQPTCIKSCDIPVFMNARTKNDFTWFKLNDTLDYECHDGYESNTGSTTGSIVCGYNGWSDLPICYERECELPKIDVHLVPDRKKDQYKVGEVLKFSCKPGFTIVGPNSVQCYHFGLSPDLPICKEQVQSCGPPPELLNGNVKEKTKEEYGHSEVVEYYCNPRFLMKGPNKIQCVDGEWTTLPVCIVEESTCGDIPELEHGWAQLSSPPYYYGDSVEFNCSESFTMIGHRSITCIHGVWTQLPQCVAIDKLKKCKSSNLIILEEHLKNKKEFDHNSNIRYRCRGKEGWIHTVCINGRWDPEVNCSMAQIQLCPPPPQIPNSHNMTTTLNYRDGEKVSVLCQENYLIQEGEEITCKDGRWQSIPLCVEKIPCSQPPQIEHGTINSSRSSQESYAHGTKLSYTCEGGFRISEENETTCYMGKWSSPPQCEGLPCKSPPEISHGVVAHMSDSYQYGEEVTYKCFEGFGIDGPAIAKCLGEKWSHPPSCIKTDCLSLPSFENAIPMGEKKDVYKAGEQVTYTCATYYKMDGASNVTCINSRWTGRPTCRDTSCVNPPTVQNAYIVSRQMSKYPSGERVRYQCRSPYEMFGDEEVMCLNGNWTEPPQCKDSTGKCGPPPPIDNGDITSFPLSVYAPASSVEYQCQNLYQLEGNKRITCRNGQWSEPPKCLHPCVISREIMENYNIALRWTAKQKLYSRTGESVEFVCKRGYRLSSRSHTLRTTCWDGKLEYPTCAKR

[2] = biological target: T1, factor H comprising only domains 6-7
[3] = biological target: factor H full length (Calbiochem) (UniProt P08603 19-1231)
Sequence of factor H full length (Calbiochem) (P08603 19-1231): as above

Binder	fold reduction of the SPR peak against wild-type v3 [1] [fold]	Kd [2]	Ration KD wt/x (residual binding) [2]	koff [2] [s⁻¹]	kon [2] [M⁻¹ s⁻¹]	Kd [3] [nM]	Ration KD wt/x (residual binding) [3]	koff [3] [s⁻¹]	kon [3] [M⁻¹ s⁻¹]
B1	~2								
B2		158 nM and 280 nM	0.076	0.11	710000	3100	0.1	0.064	21000
